Laboratory results: article PMC6274716
Non-standard residues stand in square brackets, D forms with d. *: point of attachment. Biotin = O=C1N[C@H]2[C@H](CS[C@H]2CCCCC(=O)*)N1; pT = C[C@@H](OP(=O)(O)O)[C@H](N)C(=O)O

Experiments:
Test in all cases: ELISA; competition: FHA clone binding to immobilized phosphorylated Akt1 peptide in the presence of free phosphorylated peptide; IC50
FHA variant B3 (yeast) = target: FHA variant B3 (yeast)
[1] = target: FHA variant E12 (Akt1-pTBD) (yeast)
FHA variant E1 (yeast) = target: FHA variant E1 (yeast)
FHA variant H11 (yeast) = target: FHA variant H11 (yeast)

B1: Akt1-pT308 peptide (peptide)
peptide: Biotin-KDGATMK[pT]FCGTPEY-NH2
modifications: not fully specified (residue 12)
FHA variant B3 (yeast)
  IC50: 100000 nM
[1]
  IC50: 45 nM
FHA variant E1 (yeast)
  IC50: 1950 nM
FHA variant H11 (yeast)
  IC50: 90 nM
